Test results taken from patent US20250197501A1.
One block for each binder: values may come before it.

Columns and labels:
[1] = biological target: T1, recombinant human B7-H3-mFc protein (human) (UniProt Q5ZPR3); assay: competitive binding ELISA on B7-H3 protein, no competitor
T1 sequence: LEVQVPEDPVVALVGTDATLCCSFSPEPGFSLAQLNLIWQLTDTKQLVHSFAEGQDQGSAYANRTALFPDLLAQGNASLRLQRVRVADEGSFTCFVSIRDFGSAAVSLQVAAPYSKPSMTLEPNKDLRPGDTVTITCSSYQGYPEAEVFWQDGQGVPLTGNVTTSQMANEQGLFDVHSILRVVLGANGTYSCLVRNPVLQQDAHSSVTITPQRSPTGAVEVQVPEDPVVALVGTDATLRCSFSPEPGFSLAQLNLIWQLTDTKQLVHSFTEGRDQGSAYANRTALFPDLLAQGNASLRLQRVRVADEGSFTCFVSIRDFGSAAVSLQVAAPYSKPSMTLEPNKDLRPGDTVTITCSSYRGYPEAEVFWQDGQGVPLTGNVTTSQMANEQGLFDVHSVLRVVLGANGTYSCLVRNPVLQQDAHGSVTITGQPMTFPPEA

[2] = biological target: T1, recombinant human B7-H3-mFc protein (human); assay: competitive binding ELISA on B7-H3 protein, competitor mAb 91H06
[3] = biological target: T1, recombinant human B7-H3-mFc protein (human); assay: competitive binding ELISA on B7-H3 protein, competitor Ifinatamab (4 µg/mL)
[4] = biological target: recombinant cynomolgus monkey B7-H3 protein (cynomolgus monkey); assay: ELISA, plate coated with cynomolgus monkey B7-H3
[5] = biological target: recombinant cynomolgus monkey B7-H3 protein (cynomolgus monkey); assay: SPR (Biacore), antibody captured on anti-human IgG chip, B7-H3 protein injected

- EC50 [1]: 0.0331 nM
- EC50 [2]: 0.0346 nM
- EC50 [3]: 1.78 nM
B1: Ifinatamab-biotin (antibody, INN chains, looked up, V domains shown)
VH: QVQLVQSGAEVKKPGSSVKVSCKASGYTFTNYVMHWVRQAPGQGLEWMGYINPYNDDVKYNEKFKGRVTITADESTSTAYMELSSLRSEDTAVYYCARWGYYGSPLYYFDYWGQGTLVTVSS
VL: EIVLTQSPATLSLSPGERATLSCRASSRLIYMHWYQQKPGQAPRPLIYATSNLASGIPARFSGSGSGTDFTLTISSLEPEDFAVYYCQQWNSNPPTFGQGTKVEIK
modifications: biotin

- EC50 [4]: 0.0244 nM
- Kd [5]: 0.471 nM
B2: mAb 91H06 (antibody, V domains shown)
VH: EVQLVESGGGLVQPGGSLRLSCAASGFTFSDYGMGWVRQAPGKGLEWVSSISWDSSSKEYADSVKGRFTISRDNSKNTLYLQMNSLRAEDTAVYYCARAWIAIIGGGAHFDYWGQGTLVTVSS
VL: DIQMTQSPSSLSASVGDRVTITCRASQSVSSHLAWYQQKPGKAPKLLIYLTSSLQSGVPSRFSGSGSGTDFTLTISSLQPEDFATYYCMQSKSLPFTFGQGTKVEIKR
